In patent publication US20160145328A1 (published 2016):
Substitutions are numbered along the chain they refer to. Where two headings read alike, the source gives them in different places.

Key:
protein A [1] = target: T1, protein A (UniProt P38507 37-477); assay: Heat/Cool phage ELISA on protein A; signal after 80 C 10 min / 4 C 10 min as % of untreated sample
T1 construct: also called Protein A superantigen
Experimental: (§1) The aggregation-resistance of clones was analyzed by measuring retention of signal after heat incubation in a phage ELISA format (McCafferty et al., 1990; Jespers et al., 2004). Wells of a Nunc Maxisorp Immuno-plate were coated overnight with protein A at a concentration of about 5 μg/ml in phosphate-buffered saline (PBS). The plate was washed once with PBS and blocked with about 4% (w/v) milk powder diluted in PBS (MPBS). Single colonies were picked from agar plates and grown overnight in 2×TY medium (containing about 16 g/L tryptone; about 10 g/L yeast extract; about 5 g/L NaCl, pH 7.0) supplemented with about 15 μg/ml tetracycline shaking at about 30° C. Cells were removed by centrifugation and phages were biotinylated directly in the culture supernatant by adding biotin-PEO₄-N-hydroxysuccinimide (Pierce; about 50 μM final concentration). For heat selection, supernatant was first incubated at about 80° C. for about 10 min and then at about 4° C. for about 10 min. Supernatant was added to the blocked ELISA wells. After three washes with PBS, bound phage particles were detected using an Extravidin-HRP conjugate (Sigma) and 3,3′,5,5′-tetramethylbenzidine (TMB) substrate. Absorbance was calculated by subtracting measurements at 450 and 650 nm.
Antigen-specific VH domains were selected from the Garvan-2 library by phage display against recombinant protein antigen. After selection, the domains were evaluated for aggregation-resistance using the “Heat/Cool” assay described in Example 1.2, and binding to either or protein A superantigen and or recombinant antigen.

Hen-Egg-Lysozyme = target: T2, Hen-Egg-Lysozyme (hen, UniProt P00698 19-147); assay: SPR (Biacore 2000), biotinylated antigen on streptavidin chip, purified VH
T2 construct: Biotinylated for Biacore; also called HEL
T2 sequence (P00698 19-147): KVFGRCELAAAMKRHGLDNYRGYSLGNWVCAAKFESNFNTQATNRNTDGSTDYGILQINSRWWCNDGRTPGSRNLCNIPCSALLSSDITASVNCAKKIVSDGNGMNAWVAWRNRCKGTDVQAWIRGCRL
Experimental: (§2) The affinities of VH clones were measured using surface plasmon resonance (using a Biacore2000 instrument; GE Healthcare). For this purpose, biotinylated antigen diluted in PBS was injected over a streptavidin (SA) sensor chip (Biacore AB). Serial dilutions of purified VH were injected over the flow cell containing the corresponding target antigen. Equilibrium dissociation constants were calculated using the BIAevaluation 4.1 software package (Biacore AB).
(§3) The antigen-specific VH domains were expressed and purified. Affinity measurements were performed by surface plasmon resonance on a Biacore 2000 instrument.

protein A [2] = target: T1, protein A; assay: Heat/Cool phage ELISA: phage-displayed VH, 80 C 10 min then 4 C 10 min, captured on coated protein A; signal as % of untreated sample
Experimental: as §1, with “Cells were removed by centrifugation and phages were biotinylated directly in the culture supernatant by adding biotin-PEO₄-N-hydroxysuccinimide (Pierce; about 50 μM final concentration). For heat selection, supernatant was first incubated at about 80° C. for about 10 min and then at about 4° C. for about 10 min. Supernatant was added to the blocked ELISA wells.” left out
To identify additional residues in CDR1 that confer aggregation-resistance on VH, surface-exposed residues of DP47 between positions 26 to 35 (numbering according to the Kabat numbering system) were substituted for aspartic acid (D) or glutamic acid (E). […] Correctly folded VH were captured by protein A ELISA and the absorbance signal of the treated sample was calculated as a percentage of the untreated sample.

protein A [3] = target: T1, protein A; assay: as above; remark: listed apart in the source
Experimental: as §1, with “nm. […]” for “nm.”

protein A [4] = target: T1, protein A; assay: as above; remark: listed apart in the source
Experimental: as §1, with “For heat selection, supernatant was first incubated at about 80° C. for about 10 min and then at about 4° C. for about 10 min. Supernatant was added to the blocked ELISA wells.” left out
VH domains were produced comprising negatively charged amino acids at positions 28 and/or 35 in CDR1 of DP47 and at least one other position, as set out in Table 7. Aggregation-resistance of the VH domains was assessed using the “Heat/Cool” assay as described in Example 1.2.

[5] = target: T3, human tumor necrosis factor α (human, UniProt P01375 77-233); assay: SPR (Biacore), biotinylated hTNF on streptavidin chip, purified VH injected from 4 µM down
T3 construct: also called hTNF; human TNF
T3 sequence (P01375 77-233 limits assumed): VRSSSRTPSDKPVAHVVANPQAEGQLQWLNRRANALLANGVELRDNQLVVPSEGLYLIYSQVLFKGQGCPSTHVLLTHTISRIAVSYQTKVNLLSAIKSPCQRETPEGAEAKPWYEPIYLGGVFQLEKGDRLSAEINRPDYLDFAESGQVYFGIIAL
Experimental: The affinities of VH clones G07 (anti-hTNF; SEQ ID NO: 5) and G11 (anti-mIL-21; SEQ ID NO: 6) were measured using surface plasmon resonance (using a Biacore machine; GE Healthcare). For this purpose, biotinylated antigen diluted in PBS was injected over a streptavidin (SA) sensor chip (Biacore AB). Serial dilutions of purified VH (with concentrations ranging from about 0.125 to 4 μM) were injected at a flowrate of about 20 μl/min over the flow cell containing the corresponding target antigen. Equilibrium dissociation constants were calculated using the BIAevaluation 4.1 software package (Biacore AB).
Two clones selected for their binding to human tumour necrosis factor (hTNF) or mouse interleukin 21 (mIL-21) were isolated from the Garvan-I libraries, as detailed above (see Materials and Methods section). […] Biacore affinity measurements of anti-human TNF clone G07 (SEQ ID NO: 5) and anti-mouse IL-21 clone G11 (SEQ ID NO: 6) were performed. Serial dilutions of each purified protein, starting at 4 μM, were run on a streptavidin (SA) chip coated with biotinylated hTNF and mIL-21, respectively.

protein A [6] = target: T1, protein A; assay: Heat/Cool phage ELISA: phage-displayed scFv, 80 C 10 min then 4 C 10 min, captured on coated protein A; signal as % of untreated sample
Experimental: as §1, with “Cells were removed by centrifugation and phages were biotinylated directly in the culture supernatant by adding biotin-PEO₄-N-hydroxysuccinimide (Pierce; about 50 μM final concentration). For heat selection, supernatant was first incubated at about 80° C. for about 10 min and then at about 4° C. for about 10 min. Supernatant was added to the blocked ELISA wells.” left out
The DP47-CDR1 mutants described above were paired with a common single variable light chain (VL; SEQ ID NO: 3) via a linker (SEQ ID NO: 4) in a scFv format (see the Materials and Methods section for full experimental details). […] Correctly folded scFv were captured by protein A ELISA and the absorbance signal of the treated sample was calculated as a percentage of the untreated sample.

human prolactin receptor = target: T4, human prolactin receptor (human, UniProt P16471 25-234); assay: SPR (Biacore 2000), biotinylated antigen on streptavidin chip, purified VH
T4 construct: also called hPRLR; PRLR (Prolactin Receptor)
T4 sequence (looked up): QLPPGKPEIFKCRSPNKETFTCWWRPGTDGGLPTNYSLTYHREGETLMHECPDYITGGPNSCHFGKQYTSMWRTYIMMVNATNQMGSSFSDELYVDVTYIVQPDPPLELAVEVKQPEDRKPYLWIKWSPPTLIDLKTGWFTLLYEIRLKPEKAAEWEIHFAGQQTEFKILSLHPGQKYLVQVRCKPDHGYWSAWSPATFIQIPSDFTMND
Experimental: as §2, §3

B1: VHHEL_G08 (anti-HEL VH) (other)
VH: EVQLLESGGGLVQPGGSLRLSCAASGFRISDEDMGWVRQAPGKGLEWVSYIDNNGYSTYYADSVKGRFTISRDNSKNTLYLQMNSLRAEDTAVYYCAKKQYGYQNGGFDYWGQGTLVTVSS
- Retained binding (%) after heating (protein A [1]): 83.8%
- Kd (Hen-Egg-Lysozyme): 65 nM

B2: HEL4 VH (other)
VH: QVQLLESGGGLVQPGGSLRLSCAASGFRISDEDMGWVRQAPGKGLEWVSSIYGPSGSTYYADSVKGRFTISRDNSKNTLYLQMNSLRAEDTAVYYCASALEPLSEPLGFWGQGTLVTVSS
- Retained binding (%) after heating (protein A [1]): 88.1%
- Retained binding to protein A (%) (protein A [2]): 80.2%
- Retained binding to protein A (%) (protein A [3]): 80.8%
- Retained binding to protein A (%) (protein A [4]): 87.7%

B3: VHhTNF_G07 (anti-hTNF VH) (other, not shown: small tags and cut ends)
VH: B2 VH with A99K, L100E, E101D, P102Y, L103D, S104T, E105Y, P106N, L107W
notes: also called clone G07; anti-human TNF clone G07
- Kd [5]: 1860 nM

B4: VHHEL_H04 (anti-HEL VH) (other)
VH: EVQLLESGGGLVQPGGSLRLSCAASGFRFDAEDMGWVRQAPGKGLEWVSSIYGPSGSTYYADSVKGRFTISRDNSKNTLYLQMNSLRAEDTAVYYCAKYTSPPQNHGFDYWGQGTLVTVSS
notes: Human VH single domain antibody from the Garvan-2 library
- Retained binding (%) after heating (protein A [1]): 87.8%
- Kd (Hen-Egg-Lysozyme): 28 nM

B5: scFv DP47 VH SYA31-33DED - linker - common VL (scFv)
scFv: QVQLLESGGGLVQPGGSLRLSCAASGFTFSDEDMSWVRQAPGKGLEWVSAISGSGGSTYYADSVKGRFTISRDNSKNTLYLQMNSLRAEDTAVYYCAKSYGAFDYWGQGTLVTVSSGGGGSGGGGSGGGGSTDIQMTQSPSSLSASVGDRVTITCRASQSISSYLNWYQQKPGKAPKLLIYAYSDLQSGVPSGFSGSGSGTDFTLTISSLQPEDFATYYCQQLMTHPTTFGQGTKVEIKR
notes: also called SYA31-33DED (scFv)
- Retained binding to protein A (protein A [6]): 45%

B6: DP47 VH G52aD (other, name in Kabat numbering)
VH: QVQLLESGGGLVQPGGSLRLSCAASGFTFSSYAMSWVRQAPGKGLEWVSAISDSGGSTYYADSVKGRFTISRDNSKNTLYLQMNSLRAEDTAVYYCAKSYGAFDYWGQGTLVTVSS
- Retained binding to protein A (%) (protein A [3]): 2.1%

B7: scFv HEL4 VH - linker - common VL (scFv)
scFv: QVQLLESGGGLVQPGGSLRLSCAASGFRISDEDMGWVRQAPGKGLEWVSSIYGPSGSTYYADSVKGRFTISRDNSKNTLYLQMNSLRAEDTAVYYCASALEPLSEPLGFWGQGTLVTVSSGGGGSGGGGSGGGGSTDIQMTQSPSSLSASVGDRVTITCRASQSISSYLNWYQQKPGKAPKLLIYAYSDLQSGVPSGFSGSGSGTDFTLTISSLQPEDFATYYCQQLMTHPTTFGQGTKVEIKR
notes: also called HEL4 (scFv)
- Retained binding to protein A (protein A [6]): 56%

B8: VHPRLR_C02 (anti-hPRLR VH) (other)
VH: EVQLLESGGGLVQPGGSLRLSCAASGFRFADEDMGWVRQAPGKGLEWVSDISGDGYSTYYADSVKGRFTISRDNSKNTLYLQMNSLRAEDTAVYYCAKLPPVYLGGAFDYWGQGTLVTVSS
notes: as for B4
- Retained binding (%) after heating (protein A [1]): 98.8%
- Kd (human prolactin receptor): < 100 nM
